Results published in the supplement of paper PMC10567573.

B1: ZNF277 (parent)
chain: ILREELQKQRLREILEQQQQERND

Variants of: B1
Assay: protein stability index of a GFP-peptide fusion (GPS, HEK-293T) (PSI 1-6); higher = more stable
Conditions: c terminus: a fixed tail appended
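Also: lentivirally expressed fusions sorted by FACS into six bins by GFP to DsRed ratio, PSI derived from sequencing read proportions per bin multiplied by bin number.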

Variant | protein stability index
ILREELQKQRLQEILEQQQQERND | 4.72
ILREELQKQRLDEILEQQQQERND | 5.8
ILREELQKQRLHEILEQQQQERND | 4.14
ILREELQKQRLNEILEQQQQERND | 4.86
ILREELQKQRLLEILEQQQQERND | 4.36
ILREELQKQRLEEILEQQQQERND | 5.08
ILREELQKQRLCEILEQQQQERND | 4.45
ILREELQKQRLPEILEQQQQERND | 4.78
ILREELQKQRLWEILEQQQQERND | 3.67
ILREELQKQRLYEILEQQQQERND | 3.87
ILREELQKQRLAEILEQQQQERND | 4.73
ILREELQKQRLIEILEQQQQERND | 4.15
ILREELQKQRLFEILEQQQQERND | 4.23
ILREELQKQRLVEILEQQQQERND | 4.41
ILREELQKQRLKEILEQQQQERND | 4.6
ILREELQKQRLGEILEQQQQERND | 5.05
ILREELQKQFLREILEQQQQERND | 3.47
ILREELQKQELREILEQQQQERND | 4.83
ILREELQKQNLREILEQQQQERND | 4.51
ILREELQKQCLREILEQQQQERND | 3.28
ILREELQKQWLREILEQQQQERND | 3.23
ILREELQKQKLREILEQQQQERND | 4.59
ILREELQKQSLREILEQQQQERND | 4.7
ILREELQKQALREILEQQQQERND | 4.38

Variant | protein stability index
ILREELQKQMLREILEQQQQERND | 3.58
ILREELQKQHLREILEQQQQERND | 4.85
ILREELQKQLLREILEQQQQERND | 2.56
ILREELQKQDLREILEQQQQERND | 5.47
ILREELQKQGLREILEQQQQERND | 4.65
ILREELQKQVLREILEQQQQERND | 4.07
ILREELQKQPLREILEQQQQERND | 4.83
ILREELQKQTLREILEQQQQERND | 4.59
ILREELQKQYLREILEQQQQERND | 4.3
ILREELQKQILREILEQQQQERND | 3.41
ILREILQKQRLREILEQQQQERND | 2.94
ILREWLQKQRLREILEQQQQERND | 2.84
ILREYLQKQRLREILEQQQQERND | 3.55
ILRENLQKQRLREILEQQQQERND | 4.7
ILREVLQKQRLREILEQQQQERND | 2.42
ILREQLQKQRLREILEQQQQERND | 4.17
ILREPLQKQRLREILEQQQQERND | 4.47
ILREKLQKQRLREILEQQQQERND | 4.51
ILREHLQKQRLREILEQQQQERND | 3.81
ILRESLQKQRLREILEQQQQERND | 3.99
ILREGLQKQRLREILEQQQQERND | 5.27
ILREMLQKQRLREILEQQQQERND | 3.05
ILRERLQKQRLREILEQQQQERND | 3.68
ILREELQKFRLREILEQQQQERND | 4.12

Variant | protein stability index
ILREELQKIRLREILEQQQQERND | 4.18
ILREELQKDRLREILEQQQQERND | 4.98
ILREELQKPRLREILEQQQQERND | 4.52
ILREELQKYRLREILEQQQQERND | 3.9
ILREELQKCRLREILEQQQQERND | 4.41
ILREELQKGRLREILEQQQQERND | 4.05
ILREELQKHRLREILEQQQQERND | 5.05
ILREELQKMRLREILEQQQQERND | 4.32
ILREELQKKRLREILEQQQQERND | 4.42
ILREELQKSRLREILEQQQQERND | 4.41
ILREELQKRRLREILEQQQQERND | 4.41
ILREELQKWRLREILEQQQQERND | 3.53
ILREELQKLRLREILEQQQQERND | 4.41
ILREELQKNRLREILEQQQQERND | 3.79
ILREELQKTRLREILEQQQQERND | 4.01
ILREELQKERLREILEQQQQERND | 3.04
ILREELQKVRLREILEQQQQERND | 4.15
ILREELQKQRLRQILEQQQQERND | 4.22
ILREELQKQRLRFILEQQQQERND | 3.77
ILREELQKQRLRAILEQQQQERND | 3.74
ILREELQKQRLRYILEQQQQERND | 4.07
ILREELQKQRLRVILEQQQQERND | 4.06
ILREELQKQRLRKILEQQQQERND | 4.22
ILREELQKQRLRLILEQQQQERND | 3.75

Variant | protein stability index
ILREELQKQRLRRILEQQQQERND | 4.11
ILREELQKQRLRTILEQQQQERND | 4.58
ILREELQKQRLRPILEQQQQERND | 4.56
ILREELQKQRLRIILEQQQQERND | 4.06
ILREELQKQRLRSILEQQQQERND | 4.18
ILREELQKQRLRNILEQQQQERND | 4.05
ILREELQKQRLRMILEQQQQERND | 4.01
ILREELQKQRLRGILEQQQQERND | 4.54
ILREELQKQRLRHILEQQQQERND | 4.46
ILREELQKQRLRCILEQQQQERND | 3.76
ILREELQKQRLREIEEQQQQERND | 4.99
ILREELQKQRLREIIEQQQQERND | 4.48
ILREELQKQRLREIGEQQQQERND | 4.94
ILREELQKQRLREINEQQQQERND | 4.32
ILREELQKQRLREIMEQQQQERND | 4.03
ILREELQKQRLREIKEQQQQERND | 4.37
ILREELQKQRLREIFEQQQQERND | 4.22
ILREELQKQRLREIAEQQQQERND | 5.04
ILREELQKQRLREIDEQQQQERND | 4.77
ILREELQKQRLREIHEQQQQERND | 5.11
ILREELQKQRLREIPEQQQQERND | 4.54
ILREELQKQRLREICEQQQQERND | 4.62
